Source: patent US20040175385A1 (University of California, published 2004)
Like-named read-outs stand apart in the source and are kept apart here.

Tests used:
[1] = biological target: T1, BoNT/A HC, recombinant binding domain (C-terminal domain of the heavy chain) of botulinum neurotoxin type A (Clostridium botulinum, UniProt P0DPI0 860-1296); assay: SPR BIAcore, IgG on chip, BoNT/A HC in flow
[2] = biological target: T1, BoNT/A HC, recombinant binding domain …; assay: SPR BIAcore, Hc on chip, scFv in flow
[3] = biological target: T1, BoNT/A HC, recombinant binding domain …
[4] = biological target: T1, BoNT/A HC, recombinant binding domain …; assay: SPR BIAcore, scFv column of Table 6
[5] = biological target: T1, BoNT/A HC, recombinant binding domain …; assay: SPR BIAcore, HC on chip, scFv in flow
[6] = biological target: BoNT/A HC, recombinant binding domain (C-terminal domain of the heavy chain) of botulinum neurotoxin type A (Clostridium botulinum, UniProt P0DPI0 860-1296); assay: SPR BIAcore, HC on chip, scFv in flow; remark: listed apart in the source

B1: S25 IgG (chimeric IgG, murine V domains, human C domains) (antibody, V domains shown)
VH: QVKLQQSGAELVRPGASVKLSCKASGYSLTSYWMNWVKQRPQGGLEWIGNIHPSDSDTRFNQKFEDKATLTVDTSSSTAYMQLSSPTSEDSAVYYCARGLYNGFWYFDVWGQGTTVTVSS
VL: DIELTQSPALMAASPGEKVIITCSVSSSISSSNLHWYQQKSGTSPKPWIYGTSNLASQVPVRFSGSGSGTSYSLTISSMEAEDAATYYCQQWSSYPLTFGAGTKLEIKR
B1 showed a Kd [1] of 3.9 nM, a koff [1] of 0.0057 s⁻¹ and a kon [1] of 1.46e+06 M⁻¹ s⁻¹.

B2: scFv 1F3 (scFv)
scFv: EVQLQQSGARLVKPGASVKLSCKASGYTFTSFWMHWVKQRPGRGLEWIGRLDPNSGETKYNEKFKSKATLTVDKPSSTAYMELSSLTSEDSAVYYCAREAYGYWNFDVWGTGTTVTVSSGGGGSGGGGSGGGGSDIELTQSPASMSASPGEKVTMTCRATSSVSSSYLHWYQQKSGASPKLWIYSASNLASGVPSRFSGSGSGTSYLSTISSVEAEDAATYYCQQYIGYPYTFGGGTKLEIKR
For B2, the Kd [2] was 12 nM, the koff [2] was 0.011 s⁻¹ and the kon [2] was 920000 M⁻¹ s⁻¹.

B3: scFv C39 (scFv)
scFv: QVQLQESGGGSVKPGGSLKLSCAASGFTFSDYYMSWVRQTPEKRLEWVATISDGGSYTYYPDSVKGRFTISRDNAKNNLYLQMSSLKSEDTAIYYCVRYRYDEGLDYWGQGTTVTVSSGGGGSGGGGSGGGGSDIELTQSPASLAVSLGRRATISCRASESVDSYGHSFMHWYQQKPGQPPKLLIYLASNLESGVPARFSGSGSRTDFTLTIDPVEADDAATYYCQQNNEDPYTFGGGTKLEIKR
B3 showed a Kd [2] of 2.3 nM, a koff [2] of 0.00032 s⁻¹ and a kon [2] of 140000 M⁻¹ s⁻¹.

B4: C25 IgG (chimeric IgG, murine V domains, human C domains) (antibody, V domains shown)
VH: QVQLQESGGGLVKPGGSLKLSCAASGFTFSDYYMYWVRQTPEKRLEWVATISDGGSYTYYPDSVKGRFTISRDNAKNNLYLQMSSLKSEDTAMYYCSRYRYDDAMDYWGQGTTVTVSS
VL: DIELTQSPASLAVSLGQRATISCRASESVDSYGHSFMQWYQQKPGQPPKLLIYRASNLEPGIPARFSGSGSGTDFTLTINPVEADDVATYYCQQSNEDPFTFGSGTKLEIKR
B4 showed a Kd [3] of 11 nM, a Kd [1] of 1.69 nM and a koff [1] of 0.00224 s⁻¹. It also gave a kon [1] of 1.32e+06 M⁻¹ s⁻¹.

B5: scFv C25 (scFv)
scFv: QVQLQESGGGLVKPGGSLKLSCAASGFTFSDYYMYWVRQTPEKRLEWVATISDGGSYTYYPDSVKGRFTISRDNAKNNLYLQMSSLKSEDTAMYYCSRYRYDDAMDYWGQGTTVTVSSGGGGSGGGGSGGGGSDIELTQSPASLAVSLGQRATISCRASESVDSYGHSFMQWYQQKPGQPPKLLIYRASNLEPGIPARFSGSGSGTDFTLTINPVEADDVATYYCQQSNEDPFTFGSGTKLEIKR
In the case of B5, the Kd [4] is reported as 1.1 nM, the koff [4] is reported as 0.00033 s⁻¹ and the kon [4] is reported as 300000 M⁻¹ s⁻¹. For the same binder, the Kd [2] was 1.1 nM, the koff [2] was 0.00033 s⁻¹ and the kon [2] was 300000 M⁻¹ s⁻¹. It also gave a Kd [5] of 1.1 nM, a koff [5] of 0.00033 s⁻¹ and a kon [5] of 300000 M⁻¹ s⁻¹.

B6: scFv S25 (scFv)
scFv: QVKLQQSGAELVRPGASVKLSCKASGYSLTSYWMNWVKQRPQGGLEWIGNIHPSDSDTRFNQKFEDKATLTVDTSSSTAYMQLSSPTSEDSAVYYCARGLYNGFWYFDVWGQGTTVTVSSGGGGSGGGGSGGGGSDIELTQSPALMAASPGEKVIITCSVSSSISSSNLHWYQQKSGTSPKPWIYGTSNLASQVPVRFSGSGSGTSYSLTISSMEAEDAATYYCQQWSSYPLTFGAGTKLEIKR
With B6 the Kd [4] was 73 nM, the koff [4] was 0.00081 s⁻¹ and the kon [4] was 11000 M⁻¹ s⁻¹. The Kd [2] was 73 nM, the koff [2] was 0.00082 s⁻¹ and the kon [2] was 11000 M⁻¹ s⁻¹. It also gave a Kd [5] of 73 nM, a koff [5] of 0.00082 s⁻¹ and a kon [5] of 11000 M⁻¹ s⁻¹.

B7: scFv 2B6 (human, non-immune library, Tables 9 and 10) (scFv)
chain: VKLVESGPGLVKPSQSLSLTCTVTGYSITSDYAWNWIRQFPGNKLEWMGYINYDGSNNYNPSLKNRISITRDTSKNQFFLKLNSVTSEDTATYYCARAGDGYYVDWYFDVWGTGTTVIVSSGGGGSGGGGSGGGGSYIELTQSPASLAVSLGQRATTSCRASESVDSYGNSFMHWYQQKPGQPPKLLIYLASNLESGVPARFSGSGSRTDFTLTIDPVEADDAATYYCQQNNEDPYTFGGGTKLEIKS
B7 showed a Kd [6] of 71.5 nM, a koff [6] of 0.0078 s⁻¹ and a kon [6] of 109000 M⁻¹ s⁻¹.

B8: 3D12 IgG (fully human IgG) (antibody, V domains shown)
VH: QVQLVQSGGGVVHPGRSLKLSCAGSGFTFSDYDMHWVRQAPGKGLEWVAVMWFDGTEKYSAESVKGRFTISRDNSKNTLFLQMNSLRADDTAVYYCAREPDWLLWGDRGALDVWGQGTTVTVSS
VL: DIVMTQSPSTLSASVGDRVTITCRASQSISSWLAWYQQKPGKAPKLLMYEASSLESGVPSRFSGSGSGTEFTLTISSLQPDDFAAYYCQHYNTYPYTFGQGTKLEIK
B8 showed a Kd [3] of 0.55 nM, a Kd [1] of 0.0562 nM and a koff [1] of 0.000127 s⁻¹. For the same binder, the kon [1] was 2.26e+06 M⁻¹ s⁻¹.

B9: scFv 3D12 (human, immune library) (scFv)
scFv: QVQLVQSGGGVVHPGRSLKLSCAGSGFTFSDYDMHWVRQAPGKGLEWVAVMWFDGTEKYSAESVKGRFTISRDNSKNTLFLQMNSLRADDTAVYYCAREPDWLLWGDRGALDVWGQGTTVTVSSGGGGSGGGGSGGGGSDIVMTQSPSTLSASVGDRVTITCRASQSISSWLAWYQQKPGKAPKLLMYEASSLESGVPSRFSGSGSGTEFTLTISSLQPDDFAAYYCQHYNTYPYTFGQGTKLEIK
B9 was tested, and the Kd [4] was 36.9 nM, the koff [4] was 0.0005 s⁻¹ and the kon [4] was 13000 M⁻¹ s⁻¹. It also gave a Kd [5] of 36.9 nM, a koff [5] of 0.0005 s⁻¹ and a kon [5] of 13000 M⁻¹ s⁻¹.
